# Source: IntAct's records for PubMed 22056926
# B1: Cell division protein ZapB (Escherichia coli (strain K12)), P0AF36 (parent)
# chain: MTMSLEVFEKLEAKVQQAIDTITLLQMEIEELKEKNNSLSQEVQNAQHQREELERENNHLKEQQNGWQERLQALLGRMEEV
# partner: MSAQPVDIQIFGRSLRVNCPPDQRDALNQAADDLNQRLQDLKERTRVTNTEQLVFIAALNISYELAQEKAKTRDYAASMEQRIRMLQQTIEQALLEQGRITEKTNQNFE
# Variants of: B1
# Conditions: with zapa_ecoli zapA
row,effect of a mutation on the interaction,Variant
1,decreasing interaction strength,MTMSLEVFEAAEAKVQQAIDTITLLQMEIEELKEKNNSLSQEVQNAQHQREELERENNHLKEQQNGWQERLQALLGRMEEV [K10A;L11A]
2,decreasing interaction strength,MTMSLEVAAKLEAKVQQAIDTITLLQMEIEELKEKNNSLSQEVQNAQHQREELERENNHLKEQQNGWQERLQALLGRMEEV [F8A;E9A]
3,decreasing interaction strength,MTMAAEVFEKLEAKVQQAIDTITLLQMEIEELKEKNNSLSQEVQNAQHQREELERENNHLKEQQNGWQERLQALLGRMEEV [S4A;L5A]
